Experimental findings from article PMC7192610 are described below.

Where two headings read alike, the source gives them in different places.

For data set [1], the target named is T1, GST-p53(1-393) (Homo sapiens, UniProt P04637 1-393). The experiment in a line: EMSA.
Data set [2] deals with T1, GST-p53(1-393). The data set can be described thus: EMSA. The source holds these as a separate data set. (In general: Mobility shift assays separate free from complexed probe on a gel.)

T1 sequence (P04637 whole entry): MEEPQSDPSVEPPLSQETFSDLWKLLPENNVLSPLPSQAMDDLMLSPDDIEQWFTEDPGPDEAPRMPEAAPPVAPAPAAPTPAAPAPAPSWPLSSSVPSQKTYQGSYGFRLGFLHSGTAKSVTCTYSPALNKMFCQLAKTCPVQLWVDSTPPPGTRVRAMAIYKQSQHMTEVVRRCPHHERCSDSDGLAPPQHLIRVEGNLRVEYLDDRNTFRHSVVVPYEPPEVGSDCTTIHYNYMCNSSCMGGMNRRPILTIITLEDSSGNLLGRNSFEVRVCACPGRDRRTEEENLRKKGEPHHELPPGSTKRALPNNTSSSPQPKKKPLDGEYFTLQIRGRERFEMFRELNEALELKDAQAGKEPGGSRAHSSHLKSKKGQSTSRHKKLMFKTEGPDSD

B1: CCNG1 WT (dsDNA)
DNA 1: AAACTCTACCGCTGTTGTGAGCACAAGCCCAGGCTAGTCCGAGGCTGGAGGGGCGGAGCC
DNA 2: GGCTCCGCCCCTCCAGCCTCGGACTAGCCTGGGCTTGTGCTCACAACAGCGGTAGAGTTT
For the molecule B1, the binding result in data set [1] is “binds”.

B2: CCNG1 L2 (dsDNA)
DNA 1: TACAAGGAGGCTTTTCATCCGCACAAGCCCAGGCTAGTCCGAGGCTGGAGGGGCGGAGCC
DNA 2: GGCTCCGCCCCTCCAGCCTCGGACTAGCCTGGGCTTGTGCGGATGAAAAGCCTCCTTGTA
B2: the binding result in data set [2] is “binds”.
